Results taken from the supplement of paper PMC10065799, “High-throughput profiling of sequence recognition by tyrosine kinases and SH2 domains using bacterial peptide display” (eLife, 2023).

How the values were obtained:
EPHB2 = EPHB2 (UniProt P29323); test: phosphorylation enrichment, bacterial display (enrichment ratio); higher = better substrate or ligand; peptides without Tyr show the background
MERTK = MERTK (UniProt Q12866); test: as above
Hck = Hck (UniProt P08631); test: as above
c-Src = test: as above
Fes = Fes (UniProt P07332); test: as above
FGFR1 = FGFR1 (UniProt P11362); test: as above
Chain of FGFR1 (P11362 whole entry, looked up): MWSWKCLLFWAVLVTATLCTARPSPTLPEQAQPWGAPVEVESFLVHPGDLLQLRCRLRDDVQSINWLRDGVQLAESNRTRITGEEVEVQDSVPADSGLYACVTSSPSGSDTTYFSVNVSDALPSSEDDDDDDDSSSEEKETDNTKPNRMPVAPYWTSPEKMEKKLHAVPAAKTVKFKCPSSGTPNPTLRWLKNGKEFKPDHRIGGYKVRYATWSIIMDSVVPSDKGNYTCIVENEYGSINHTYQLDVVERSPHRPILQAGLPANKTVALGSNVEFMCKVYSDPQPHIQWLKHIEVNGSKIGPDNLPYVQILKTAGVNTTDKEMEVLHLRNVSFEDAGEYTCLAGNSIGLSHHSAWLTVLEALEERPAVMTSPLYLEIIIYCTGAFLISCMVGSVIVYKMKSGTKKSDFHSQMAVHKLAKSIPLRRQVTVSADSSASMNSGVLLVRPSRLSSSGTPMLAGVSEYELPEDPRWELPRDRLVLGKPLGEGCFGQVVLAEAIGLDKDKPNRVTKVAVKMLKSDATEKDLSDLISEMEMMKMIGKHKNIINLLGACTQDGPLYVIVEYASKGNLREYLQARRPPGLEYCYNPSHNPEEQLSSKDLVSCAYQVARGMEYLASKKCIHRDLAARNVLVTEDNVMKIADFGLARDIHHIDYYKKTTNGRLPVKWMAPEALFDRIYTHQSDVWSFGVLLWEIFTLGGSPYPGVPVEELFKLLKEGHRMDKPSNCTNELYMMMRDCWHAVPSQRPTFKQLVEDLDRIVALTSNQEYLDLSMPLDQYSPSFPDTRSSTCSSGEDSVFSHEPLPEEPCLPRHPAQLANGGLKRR

Fer (mouse) = test: as above
EPHB1 = EPHB1 (UniProt P54762); test: as above
c-Abl (mouse) = test: as above
Jak2 = Jak2 (UniProt O60674); test: as above
FGFR3 = FGFR3 (UniProt P22607); test: as above
Chain of FGFR3 (P22607 whole entry, looked up): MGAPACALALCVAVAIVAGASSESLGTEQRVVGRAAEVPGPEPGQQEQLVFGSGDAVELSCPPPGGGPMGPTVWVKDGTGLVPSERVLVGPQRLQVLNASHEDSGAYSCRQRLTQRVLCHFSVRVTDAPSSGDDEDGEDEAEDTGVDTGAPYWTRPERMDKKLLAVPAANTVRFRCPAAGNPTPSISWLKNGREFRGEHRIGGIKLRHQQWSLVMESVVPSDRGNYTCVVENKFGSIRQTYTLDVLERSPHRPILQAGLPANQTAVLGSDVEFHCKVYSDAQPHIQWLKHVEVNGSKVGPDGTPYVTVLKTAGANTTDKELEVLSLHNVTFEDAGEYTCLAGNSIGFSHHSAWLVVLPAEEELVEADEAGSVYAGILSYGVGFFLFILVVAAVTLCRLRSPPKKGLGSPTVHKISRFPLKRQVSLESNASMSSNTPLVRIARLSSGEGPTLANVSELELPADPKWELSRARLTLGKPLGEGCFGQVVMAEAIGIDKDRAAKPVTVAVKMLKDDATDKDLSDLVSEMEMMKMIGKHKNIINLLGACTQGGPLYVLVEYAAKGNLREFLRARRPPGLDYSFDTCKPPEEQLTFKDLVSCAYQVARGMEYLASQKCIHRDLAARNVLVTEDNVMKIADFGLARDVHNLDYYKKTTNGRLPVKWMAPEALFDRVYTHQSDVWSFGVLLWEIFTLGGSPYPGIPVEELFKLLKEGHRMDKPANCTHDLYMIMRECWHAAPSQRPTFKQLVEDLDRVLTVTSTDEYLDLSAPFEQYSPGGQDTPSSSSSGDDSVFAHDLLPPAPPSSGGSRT

AncSZ = test: as above
Fyn = Fyn (UniProt P06241); test: as above
Chain of Fyn (P06241 whole entry, looked up): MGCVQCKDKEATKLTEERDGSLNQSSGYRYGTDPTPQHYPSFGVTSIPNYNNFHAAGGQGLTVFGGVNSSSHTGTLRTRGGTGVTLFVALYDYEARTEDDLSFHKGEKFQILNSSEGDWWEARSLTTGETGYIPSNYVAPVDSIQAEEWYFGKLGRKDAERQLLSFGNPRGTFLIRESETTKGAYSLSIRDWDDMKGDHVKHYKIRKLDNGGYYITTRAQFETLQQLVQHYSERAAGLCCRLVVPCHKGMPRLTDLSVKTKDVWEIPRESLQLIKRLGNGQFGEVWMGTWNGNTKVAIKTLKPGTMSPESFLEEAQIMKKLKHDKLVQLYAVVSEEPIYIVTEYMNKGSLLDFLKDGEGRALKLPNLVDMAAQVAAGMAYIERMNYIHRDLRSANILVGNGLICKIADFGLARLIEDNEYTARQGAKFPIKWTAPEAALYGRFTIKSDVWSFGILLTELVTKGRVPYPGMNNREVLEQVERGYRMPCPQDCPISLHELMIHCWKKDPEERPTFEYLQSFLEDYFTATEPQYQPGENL

c-Src SH2 = test: SH2 binding enrichment of the phosphorylated peptide, bacterial display (enrichment ratio); higher = better substrate or ligand; peptides without Tyr show the background
Grb2 SH2 = Grb2 SH2 (UniProt P62993); test: as above
Chain of Grb2 SH2 (P62993 whole entry, looked up): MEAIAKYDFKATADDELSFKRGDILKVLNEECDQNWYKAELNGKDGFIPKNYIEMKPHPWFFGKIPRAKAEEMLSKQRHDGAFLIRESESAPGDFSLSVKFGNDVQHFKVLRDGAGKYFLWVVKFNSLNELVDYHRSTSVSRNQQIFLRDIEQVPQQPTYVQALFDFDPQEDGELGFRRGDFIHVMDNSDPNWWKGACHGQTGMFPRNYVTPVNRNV

SHP2-C SH2 = test: as above
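For SH2 binding enrichment of the phosphorylated peptide, bacterial display in this document: peptide library displayed on the E. coli surface as eCPX fusions, selected cells deep-sequenced, score is each peptide's frequency after selection divided by its frequency in the input.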
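For phosphorylation enrichment, bacterial display in this document: 11-residue human phosphosite peptides and single-mutation variants displayed on the E. coli surface, counted by deep sequencing, each peptide's frequency after selection divided by its frequency in the unselected input library; frequency after pTyr selection over input frequency; kinase dosed for 20-30% of maximal phosphorylation in three min.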

Chain of MERTK (Q12866 whole entry, looked up): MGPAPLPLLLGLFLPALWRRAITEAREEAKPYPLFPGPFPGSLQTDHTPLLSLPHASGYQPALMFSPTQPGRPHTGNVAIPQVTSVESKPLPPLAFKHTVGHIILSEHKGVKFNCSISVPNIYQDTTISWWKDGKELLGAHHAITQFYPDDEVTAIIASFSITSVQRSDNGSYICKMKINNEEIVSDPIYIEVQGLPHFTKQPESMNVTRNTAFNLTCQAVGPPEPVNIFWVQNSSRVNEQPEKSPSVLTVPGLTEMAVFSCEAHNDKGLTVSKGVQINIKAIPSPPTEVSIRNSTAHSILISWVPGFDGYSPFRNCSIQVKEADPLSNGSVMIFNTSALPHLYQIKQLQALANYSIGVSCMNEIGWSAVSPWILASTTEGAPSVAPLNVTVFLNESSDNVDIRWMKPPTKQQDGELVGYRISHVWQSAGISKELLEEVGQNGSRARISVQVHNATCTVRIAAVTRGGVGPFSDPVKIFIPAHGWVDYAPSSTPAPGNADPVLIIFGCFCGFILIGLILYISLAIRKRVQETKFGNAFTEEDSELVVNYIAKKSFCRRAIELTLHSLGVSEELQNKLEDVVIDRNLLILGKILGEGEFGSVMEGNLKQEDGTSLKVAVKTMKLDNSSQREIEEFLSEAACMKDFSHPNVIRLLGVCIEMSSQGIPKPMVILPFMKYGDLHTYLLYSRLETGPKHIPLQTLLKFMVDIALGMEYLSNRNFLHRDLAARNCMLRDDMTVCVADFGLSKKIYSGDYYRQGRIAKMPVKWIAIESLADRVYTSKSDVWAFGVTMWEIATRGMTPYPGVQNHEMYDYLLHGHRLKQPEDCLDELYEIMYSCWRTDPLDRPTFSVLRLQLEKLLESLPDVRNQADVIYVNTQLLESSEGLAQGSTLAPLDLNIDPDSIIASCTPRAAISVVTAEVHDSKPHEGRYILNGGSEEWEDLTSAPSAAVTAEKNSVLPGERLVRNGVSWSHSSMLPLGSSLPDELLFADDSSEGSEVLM
Chain of EPHB2 (P29323 whole entry, looked up): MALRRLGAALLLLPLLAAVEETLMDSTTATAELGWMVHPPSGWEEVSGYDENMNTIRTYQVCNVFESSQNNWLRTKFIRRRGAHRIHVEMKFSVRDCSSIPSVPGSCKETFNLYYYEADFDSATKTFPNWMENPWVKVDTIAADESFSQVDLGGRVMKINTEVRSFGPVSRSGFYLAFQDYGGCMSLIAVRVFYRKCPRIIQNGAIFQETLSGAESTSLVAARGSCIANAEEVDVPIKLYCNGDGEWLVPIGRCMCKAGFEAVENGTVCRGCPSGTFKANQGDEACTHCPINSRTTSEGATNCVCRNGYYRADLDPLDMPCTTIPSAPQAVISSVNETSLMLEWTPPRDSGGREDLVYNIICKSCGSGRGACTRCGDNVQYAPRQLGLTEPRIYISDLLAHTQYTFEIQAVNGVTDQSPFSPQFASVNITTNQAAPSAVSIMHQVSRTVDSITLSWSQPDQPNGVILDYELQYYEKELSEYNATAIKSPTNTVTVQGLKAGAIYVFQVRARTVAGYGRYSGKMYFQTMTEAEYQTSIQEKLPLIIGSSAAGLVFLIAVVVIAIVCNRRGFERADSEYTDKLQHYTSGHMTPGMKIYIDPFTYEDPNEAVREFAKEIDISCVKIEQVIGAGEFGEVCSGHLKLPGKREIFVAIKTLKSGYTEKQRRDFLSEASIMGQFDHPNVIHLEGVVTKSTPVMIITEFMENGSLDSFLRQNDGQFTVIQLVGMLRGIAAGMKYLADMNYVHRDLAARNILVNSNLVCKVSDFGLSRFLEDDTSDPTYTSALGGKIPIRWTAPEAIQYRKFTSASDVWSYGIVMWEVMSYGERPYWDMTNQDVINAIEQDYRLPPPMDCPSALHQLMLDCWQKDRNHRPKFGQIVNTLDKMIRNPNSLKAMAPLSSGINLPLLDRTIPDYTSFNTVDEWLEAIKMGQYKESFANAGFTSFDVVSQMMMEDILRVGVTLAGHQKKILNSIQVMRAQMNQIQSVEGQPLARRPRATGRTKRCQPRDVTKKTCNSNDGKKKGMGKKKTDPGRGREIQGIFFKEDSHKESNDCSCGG
Chain of Hck (P08631 whole entry, looked up): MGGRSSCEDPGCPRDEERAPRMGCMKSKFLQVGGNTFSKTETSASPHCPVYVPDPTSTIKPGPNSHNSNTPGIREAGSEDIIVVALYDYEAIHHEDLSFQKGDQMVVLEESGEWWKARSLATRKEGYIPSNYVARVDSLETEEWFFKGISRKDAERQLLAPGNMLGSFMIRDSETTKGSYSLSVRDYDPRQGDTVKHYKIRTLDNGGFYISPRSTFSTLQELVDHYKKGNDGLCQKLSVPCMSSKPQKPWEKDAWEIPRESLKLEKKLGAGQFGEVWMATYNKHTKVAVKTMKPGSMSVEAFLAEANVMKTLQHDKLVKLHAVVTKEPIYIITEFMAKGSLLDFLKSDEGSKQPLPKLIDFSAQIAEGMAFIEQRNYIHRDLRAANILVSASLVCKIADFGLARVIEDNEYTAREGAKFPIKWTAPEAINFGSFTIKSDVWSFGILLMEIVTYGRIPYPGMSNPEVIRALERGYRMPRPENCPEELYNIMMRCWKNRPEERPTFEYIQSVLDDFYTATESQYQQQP

Sequence | phosphorylation enrichment (EPHB2) | phosphorylation enrichment (MERTK) | phosphorylation enrichment (Hck) | phosphorylation enrichment (c-Src) | phosphorylation enrichment (Fes) | phosphorylation enrichment (FGFR1) | phosphorylation enrichment (Fer (mouse)) | phosphorylation enrichment (EPHB1) | phosphorylation enrichment (c-Abl (mouse)) | phosphorylation enrichment (Jak2) | phosphorylation enrichment (FGFR3) | phosphorylation enrichment (AncSZ) | phosphorylation enrichment (Fyn) | SH2 binding enrichment (c-Src SH2) | SH2 binding enrichment (Grb2 SH2) | SH2 binding enrichment (SHP2-C SH2)
LIQRNYKLTAQ [ALPK2_Y1975_A1978T] | 0.604 | 0.567 | 0.507 | 0.706 | 1.12 | 0.465 | 0.393 | 0.479 | 1.2 | 1.24 | 0.511 | 0.86 | 0.462 | 0.532 | 1.24 | 0.952
LKALHYMAQTS [SACS_Y3367_V3369A] | 0.634 | 0.749 | 0.623 | 0.587 | 0.94 | 0.765 | 0.746 | 0.759 | 0.907 | 0.751 | 0.887 | 0.89 | 0.705 | 0.609 | 0.861 | 0.707
LKFAIYFEARE [LAMA2_Y1258_YF] | 0.983 | 0.845 | 0.736 | 0.345 | 2.6 | 1.41 | 0.884 | 1.78 | 1.06 | 1.1 | 2.05 | 1.45 | 1.29 | 0.352 | 1.08 | 0.756
LKGQVYILGRE [ASS1_Y359] | 0.949 | 0.56 | 0.369 | 0.438 | 1.26 | 0.406 | 0.756 | 0.522 | 1.47 | 1.17 | 1.07 | 1.09 | 0.679 | 0.31 | 0.836 | 0.444
LKVDVYRRSHK [FUT3_Y222_G223R] | 0.496 | 0.546 | 0.577 | 0.753 | 1.46 | 0.611 | 0.485 | 0.656 | 0.908 | 1.78 | 0.85 | 1.11 | 0.44 | 0.677 | 1.08 | 0.931
LKYAIYFEVRE [LAMA2_Y1258_A1261V] | 1.23 | 0.954 | 0.827 | 1.45 | 2.57 | 1.09 | 0.929 | 1.67 | 2.14 | 2.44 | 1.39 | 2.08 | 1.17 | 0.544 | 0.399 | 0.573
LLASGYDSPIN [ABLIM1_Y638_R637G] | 0.825 | 0.52 | 0.783 | 0.556 | 1.28 | 0.859 | 0.423 | 0.764 | 1.03 | 0.737 | 1.09 | 1.33 | 0.529 | 1.84 | 0.615 | 0.653
LLASRYDSPIN [ABLIM1_Y638] | 0.929 | 1.09 | 0.923 | 0.96 | 1.65 | 1.12 | 0.607 | 1.58 | 1.13 | 1.59 | 0.636 | 1.32 | 1.18 | 2.63 | 0.704 | 0.991
LLINKYGLSAH [SCP2_Y151] | 0.669 | 0.372 | 0.428 | 0.428 | 0.99 | 0.488 | 0.619 | 0.71 | 0.559 | 0.838 | 0.708 | 0.877 | 0.443 | 0.349 | 0.869 | 0.821
LLKNMYLMLDN [STAT1_Y203_K201N] | 1.02 | 0.745 | 0.921 | 0.933 | 2.63 | 0.868 | 1.02 | 1.34 | 1.7 | 2.77 | 1.65 | 2.85 | 0.593 | 0.945 | 0.975 | 3.55
LLREWYLQDPY [SIX3_Y225] | 0.928 | 0.606 | 0.85 | 1.11 | 1.52 | 0.867 | 0.938 | 0.947 | 1.11 | 1.11 | 1.12 | 1.52 | 1.08 | 0.76 | 1.43 | 1.28
LLVVLNKYRCY [PSEN1_Y154_Y154N] | 0.875 | 0.456 | 0.448 | 0.577 | 1.6 | 0.73 | 0.53 | 1.03 | 0.96 | 1.68 | 1.39 | 1.34 | 0.631 | 0.536 | 0.952 | 0.79
LNCIFYKDQTG [RS1_Y166_W163C_YF] | 1.34 | 0.798 | 0.774 | 1.31 | 2.08 | 0.563 | 1.44 | 1.1 | 1.24 | 2.06 | 1.06 | 1.56 | 0.552 | 0.502 | 0.75 | 0.659
LNEAVYTKMMT [G6PD_Y401_P396L] | 1.8 | 3.19 | 6.11 | 5.76 | 2.05 | 1.38 | 16.1 | 1.76 | 0.881 | 1.15 | 1.29 | 1.9 | 5.35 | 1.61 | 0.659 | 0.414
LNFNEYFRDLN [HPRT1_Y198_D194N_YF] | 1.01 | 0.972 | 0.99 | 1.15 | 2.1 | 1.18 | 1.03 | 1.23 | 2.15 | 2.25 | 0.803 | 1.78 | 0.866 | 0.608 | 1.11 | 0.955
LNLKDYNLVGG [GNAQ_Y356_E355D] | 0.428 | 0.412 | 0.538 | 0.482 | 0.665 | 0.523 | 0.464 | 0.491 | 0.465 | 0.508 | 0.565 | 0.582 | 0.481 | 0.71 | 0.873 | 0.452
LNPLIYTLKNA [OR4C46_Y285] | 0.603 | 0.463 | 2.31 | 3.03 | 1.08 | 0.73 | 0.545 | 0.762 | 0.474 | 0.343 | 0.886 | 0.602 | 2.17 | 0.42 | 0.642 | 0.891

Sequence | phosphorylation enrichment (EPHB2) | phosphorylation enrichment (MERTK) | phosphorylation enrichment (Hck) | phosphorylation enrichment (c-Src) | phosphorylation enrichment (Fes) | phosphorylation enrichment (FGFR1) | phosphorylation enrichment (Fer (mouse)) | phosphorylation enrichment (EPHB1) | phosphorylation enrichment (c-Abl (mouse)) | phosphorylation enrichment (Jak2) | phosphorylation enrichment (FGFR3) | phosphorylation enrichment (AncSZ) | phosphorylation enrichment (Fyn) | SH2 binding enrichment (c-Src SH2) | SH2 binding enrichment (Grb2 SH2) | SH2 binding enrichment (SHP2-C SH2)
LRGEDCGFSVD [PRKCI_Y430_Y430C] | 1.14 | 1.25 | 0.987 | 1.48 | 2.77 | 0.847 | 0.886 | 2.18 | 1.97 | 2.49 | 1.41 | 1.94 | 0.631 | 0.841 | 0.925 | 0.615
LRLFSYSTTIR [CYP7B1_Y365_S363F] | 0.45 | 0.35 | 0.57 | 0.358 | 1.09 | 0.357 | 0.457 | 0.654 | 0.663 | 1 | 0.773 | 0.815 | 0.421 | 0.494 | 0.983 | 0.871
LRRFIYRPPDQ [OTOF_Y1231_R1236Q] | 0.606 | 0.516 | 0.493 | 0.318 | 0.606 | 0.443 | 0.445 | 0.409 | 0.333 | 0.502 | 0.397 | 0.675 | 0.479 | 0.359 | 0.595 | 0.391
LRTAVHHEILI [CREBBP_Y1450_Y1450H] | 0.487 | 0.535 | 0.643 | 0.701 | 1.39 | 0.963 | 0.675 | 1.02 | 1.94 | 1.32 | 0.812 | 1.09 | 0.508 | 0.48 | 0.973 | 0.756
LSIDRYHAIVY [NPSR1_Y147] | 0.594 | 0.7 | 0.533 | 0.89 | 1.15 | 3.36 | 0.544 | 0.438 | 0.982 | 1.65 | 1.87 | 0.83 | 0.546 | 5.31 | 1.25 | 1.03
LSSVSYVGCSL [ADGRD1_Y571_I569V] | 1.06 | 1.05 | 1.01 | 1.12 | 1.46 | 0.949 | 0.98 | 0.633 | 1.35 | 1.23 | 1.04 | 1.2 | 1.16 | 0.519 | 0.798 | 0.691
LTEEKYELKEG [TREM1_Y29] | 0.875 | 0.705 | 0.782 | 0.52 | 1.41 | 0.711 | 0.593 | 0.977 | 0.785 | 1.65 | 0.979 | 2.36 | 0.698 | 0.494 | 1.14 | 0.639
LTEHGYSFTTT [ACTB_Y198_R196H] | 0.533 | 0.938 | 0.342 | 1.09 | 1.79 | 0.961 | 0.815 | 0.862 | 1.58 | 1.61 | 1.09 | 2.11 | 0.968 | 1.88 | 0.817 | 0.883
LTERSYSFVTT [ACTA1_Y200_G199S] | 0.984 | 2.56 | 1.04 | 0.856 | 1.24 | 0.973 | 2.92 | 0.543 | 0.889 | 1.03 | 0.718 | 0.951 | 0.622 | 5.24 | 0.945 | 4.37
LTFHMYADPNF [SOS1_Y618_YF] | 1.45 | 0.843 | 0.711 | 0.755 | 1.97 | 0.715 | 0.901 | 1.67 | 1.99 | 1.61 | 1.1 | 1.81 | 0.577 | 6.02 | 0.854 | 0.816
LTSKPYAFTAR [NDUFS1_Y236] | 1.08 | 0.649 | 0.58 | 0.534 | 1.1 | 0.67 | 0.591 | 0.617 | 0.453 | 0.398 | 1.36 | 0.663 | 0.722 | 0.533 | 0.684 | 0.767
LTVVIYVLIGR [EPHA3_Y561] | 1.77 | 0.697 | 0.839 | 0.643 | 2.13 | 0.691 | 1.83 | 1.05 | 1.9 | 0.844 | 1.26 | 1.39 | 0.567 | 0.918 | 1.64 | 1.36
LVMFIYAIFWM [SCN1A_Y1684_G1688W] | 0.491 | 0.527 | 0.558 | 0.5 | 1.05 | 0.566 | 0.531 | 0.525 | 0.739 | 0.963 | 0.626 | 1.07 | 0.563 | 1.21 | 1.3 | 1.76
LVMFTYAIFGM [SCN1A_Y1684_I1683T] | 1.43 | 0.937 | 1.48 | 2.9 | 2.16 | 0.728 | 1.08 | 1.78 | 1.82 | 2.23 | 1.73 | 2.09 | 2.15 | 0.542 | 1.16 | 0.762
LVSCAYQMARG [FGFR1_Y605_V607M] | 0.79 | 0.489 | 0.741 | 1.4 | 2.32 | 0.66 | 0.824 | 0.578 | 0.998 | 0.937 | 0.882 | 1.22 | 0.589 | 0.661 | 0.731 | 0.9
LYNQDYPIHSV [GATM_Y227] | 1.03 | 0.771 | 0.966 | 0.901 | 1.23 | 2.26 | 0.732 | 0.866 | 0.86 | 0.984 | 1.44 | 1.17 | 1.31 | 0.481 | 1.02 | 0.788
